B1: 053054 single-chain variable fragment (scFv, V domains shown)
VH: QVQLQESGPGLVKPSQTLSLTCNVSGDSINSGDYYWIWIRQPPGKGLEWIGNIYYSGTAYYNPSLKTRLIISIDTSTNQFSLKVTSVTAADTAIYYCARASTTVVSPWLDPWGQGTLVTVSS
VL: SYELTQPSSVAVAPGQTARIPCGGDNIESKGVHWYQQKPGQAPVLVVYDDHDRPSGIPERFSGSNSGNTATLTVSRVEAGDEADYYCQVWDTSSEHPVFGGGTKLTVL
B2: human monoclonal antibody 053054 (full-length IgG1) (antibody, V domains shown)
VH: B1 VH
VL: B1 VL
B3: 092096 single-chain variable fragment (scFv, V domains shown)
VH: QVQLVQSGAEVKKPGASVKVSCKVSGYTLTELSMHWVRQAPGKGLEWMGGFDREDGESIYAQKFQGRVTLTEDTSTDSVYMELSNLRSDDTAVYFCATDFGGSYFYAFDIWGQGTMVTVSS
VL: not shown
B4: human monoclonal antibody 092096 (full-length IgG1) (antibody, V domains shown)
VH: B3 VH
VL: not shown

Legend:
[1] = molecular target: T1, biotinylated BirA-tagged Sal-1 DBP-II (Plasmodium vivax, UniProt P22290, biotin (added with BirA ligase on the BirA tag)); assay: BLI
T1 sequence (P22290 211-525): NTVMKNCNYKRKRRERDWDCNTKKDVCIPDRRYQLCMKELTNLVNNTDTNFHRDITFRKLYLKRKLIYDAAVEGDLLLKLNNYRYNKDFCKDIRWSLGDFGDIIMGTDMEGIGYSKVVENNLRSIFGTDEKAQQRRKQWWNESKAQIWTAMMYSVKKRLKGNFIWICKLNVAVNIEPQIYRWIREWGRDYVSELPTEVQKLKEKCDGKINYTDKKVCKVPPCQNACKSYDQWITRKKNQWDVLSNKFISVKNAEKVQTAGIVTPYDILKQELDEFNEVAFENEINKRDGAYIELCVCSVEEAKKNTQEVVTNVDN

[2] = molecular target: T1, biotinylated BirA-tagged Sal-1 DBP-II; assay: flow cytometry on cells

Row | Binder | Kd [1] | IC50 [2]
1 | B1 | 7.44 ± 0.36 nM | –
2 | B2 | – | 4.88 ± 1.06 nM
3 | B3 | 7.63 ± 0.29 nM | –
4 | B4 | – | 1.63 ± 1.07 nM
